Reference: patent US20150252117A1 (Genentech, published 2015)
Substitutions are numbered along the chain they refer to. Names may count otherwise. Values belong to the binder of their own block, whether it stands above or below them.

Assays:
Murine Jag1-DSL-EGF1-4 [1] = biological target: T1, Murine Jag1-DSL-EGF1-4 (mouse, UniProt Q9QXX0 34-377); assay: ELISA (screening, FIG. 8)
T1 construct: also called murine Jagged1; mouse Jagged1

Human Jag2-DSL-EGF1-4 [2] = biological target: T2, Human Jag2-DSL-EGF1-4 (human, UniProt Q9Y219 24-388); assay: ELISA on human Jagged2 (Jag-2 bars), OD450 nm
T2 construct: also called human Jagged2; hJag2
T2 sequence: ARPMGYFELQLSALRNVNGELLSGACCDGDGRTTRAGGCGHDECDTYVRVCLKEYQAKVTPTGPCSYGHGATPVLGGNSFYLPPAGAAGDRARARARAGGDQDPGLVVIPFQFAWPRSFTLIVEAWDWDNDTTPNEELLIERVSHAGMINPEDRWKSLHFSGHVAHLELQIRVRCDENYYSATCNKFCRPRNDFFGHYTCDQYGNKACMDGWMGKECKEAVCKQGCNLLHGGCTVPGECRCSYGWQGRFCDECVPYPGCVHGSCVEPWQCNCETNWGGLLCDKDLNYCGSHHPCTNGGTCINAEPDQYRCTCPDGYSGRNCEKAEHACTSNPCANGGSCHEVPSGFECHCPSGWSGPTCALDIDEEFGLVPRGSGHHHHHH

Murine Jag2-DSL-EGF1-4 [3] = biological target: T3, Murine Jag2-DSL-EGF1-4 (mouse, UniProt Q9QYE5 27-388); assay: SPR (BIAcore-3000), IgG captured, Jag DSL-EGF1-4 as analyte
T3 construct: also called murine Jagged2; Mouse Jag2
T3 sequence: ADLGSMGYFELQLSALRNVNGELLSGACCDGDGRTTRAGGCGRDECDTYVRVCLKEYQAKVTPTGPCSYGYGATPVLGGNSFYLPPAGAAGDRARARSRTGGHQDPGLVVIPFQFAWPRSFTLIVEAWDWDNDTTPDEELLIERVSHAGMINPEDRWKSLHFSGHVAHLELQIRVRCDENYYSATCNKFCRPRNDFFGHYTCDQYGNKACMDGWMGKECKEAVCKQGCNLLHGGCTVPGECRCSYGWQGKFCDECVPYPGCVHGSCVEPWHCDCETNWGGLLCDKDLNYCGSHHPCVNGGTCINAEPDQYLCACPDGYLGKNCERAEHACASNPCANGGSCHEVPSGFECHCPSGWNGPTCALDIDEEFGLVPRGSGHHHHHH

Human Jag1-DSL-EGF1-4 [4] = biological target: T4, Human Jag1-DSL-EGF1-4 (human, UniProt P78504 34-377); assay: SPR (BIAcore-3000), IgG captured, Jag DSL-EGF1-4 as analyte, 25 C
T4 construct: Secreted protein from BEVS cells; also called human Jagged1; hJag1; not shown: TEV protease cleavage site and 6-His tag at the C-terminus

[5] = biological target: T5, purified Jag1 extracellular domain protein fragment (Homo sapiens (Human), UniProt P78504 34-377); assay: BIAcore (SPR), purified Jag1 extracellular domain fragment
T5 construct: not shown: C-terminal TEV protease cleavage site and 6-His tag of the human Jag1-DSL-EGF1-4 antigen

Human Jag1-DSL-EGF1-4 [6] = biological target: T4, Human Jag1-DSL-EGF1-4; assay: ELISA on human Jagged1 (Jag-1 bars), OD450 nm
Murine Jag1-DSL-EGF1-4 [7] = biological target: T1, Murine Jag1-DSL-EGF1-4; assay: SPR (BIAcore-3000), IgG captured, Jag DSL-EGF1-4 as analyte
Human Jag2-DSL-EGF1-4 [8] = biological target: T2, Human Jag2-DSL-EGF1-4; assay: SPR (BIAcore-3000), IgG captured, Jag DSL-EGF1-4 as analyte, 25 C
Murine Jag2-DSL-EGF1-4 [9] = biological target: T3, Murine Jag2-DSL-EGF1-4; assay: as above
[10] = biological target: T6, human Delta-like 4 (DSL-EGF1-4 fragment) (human, UniProt Q9NR61 27-365, limits assumed); assay: SPR (BIAcore T200), IgG1 captured, ligand as analyte
T6 construct: domain: DSL-EGF1-4; Recombinant purified Notch ligand; also called human DLL4; hDLL4

[11] = biological target: T7, murine Delta-like 4 (DSL-EGF1-4 fragment) (mouse, UniProt Q9JI71 27-366, limits assumed); assay: as above
T7 construct: domain: DSL-EGF1-4; Recombinant purified Notch ligand; also called murine DLL4; mouse DLL4

Human Jag2-DSL-EGF1-4 [12] = biological target: T2, Human Jag2-DSL-EGF1-4; assay: SPR (BIAcore T200), IgG1 captured, ligand as analyte, 25 C
Murine Jag2-DSL-EGF1-4 [13] = biological target: T3, Murine Jag2-DSL-EGF1-4; assay: as above
[14] = biological target: T8, human Delta-like 1 (DSL-EGF1-4 fragment) (human, UniProt O00548 18-368, limits assumed); assay: SPR (BIAcore T200), IgG1 captured, ligand as analyte; value marked * (asterisk not explained)
T8 construct: domain: DSL-EGF1-4; Recombinant purified Notch ligand; also called human DLL1; hDLL1
T8 sequence (looked up): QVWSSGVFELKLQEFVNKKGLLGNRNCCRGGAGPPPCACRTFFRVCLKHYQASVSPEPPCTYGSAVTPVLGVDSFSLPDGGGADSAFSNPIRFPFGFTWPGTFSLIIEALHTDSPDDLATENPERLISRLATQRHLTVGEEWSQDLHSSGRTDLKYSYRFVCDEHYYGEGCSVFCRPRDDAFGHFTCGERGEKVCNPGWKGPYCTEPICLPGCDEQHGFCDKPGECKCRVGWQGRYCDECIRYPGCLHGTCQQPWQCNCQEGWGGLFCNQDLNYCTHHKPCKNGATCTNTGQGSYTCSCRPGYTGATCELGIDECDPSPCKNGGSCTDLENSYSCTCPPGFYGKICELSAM

[15] = biological target: T9, murine Delta-like 1 (DSL-EGF1-4 fragment) (mouse, UniProt Q61483 18-367, limits assumed); assay: as above
T9 construct: domain: DSL-EGF1-4; Recombinant purified Notch ligand; also called murine DLL1; mouse DLL1

Human Jag1-DSL-EGF1-4 [16] = biological target: T4, Human Jag1-DSL-EGF1-4; assay: SPR (BIAcore T200), IgG1 captured, ligand as analyte, 25 C
Murine Jag1-DSL-EGF1-4 [17] = biological target: T1, Murine Jag1-DSL-EGF1-4; assay: as above
Human Jag2-DSL-EGF1-4 [18] = biological target: T2, Human Jag2-DSL-EGF1-4; assay: ELISA, Notch ligand coated at 1 ug/ml, serial 3-fold dilutions of IgG, anti-human Fab-peroxidase, A630 [left panel, A-2]
Murine Jag2-DSL-EGF1-4 [19] = biological target: T3, Murine Jag2-DSL-EGF1-4; assay: as above
[20] = biological target: T8, human Delta-like 1 (DSL-EGF1-4 fragment); assay: as above
[21] = biological target: T9, murine Delta-like 1 (DSL-EGF1-4 …); assay: as above
[22] = biological target: T6, human Delta-like 4 (DSL-EGF1-4 fragment); assay: as above
[23] = biological target: T7, murine Delta-like 4 (DSL-EGF1-4 …); assay: as above

B1: Antibody A (antibody, human IgG1, V domains shown)
VH: EVQLVESGGGLVQPGGSLRLSCAASGFTFSNYGIHWVRQAPGKGLEWVGWITPDGGYTDYADSVKGRFTISADTSKNTAYLQMNSLRAEDTAVYYCARAGSWFAYWGQGTLVTVSS
VL: DIQMTQSPSSLSASVGDRVTITCRASQDVSTAVAWYQQKPGKAPKLLIYSASFLYSGVPSRFSGSGSGTDFTLTISSLQPEDFATYYCQQSYTTPPTFGQGTKVEIK
notes: Only the variable domains are tied to the tested antibody; also called parent antibody A; anti-Jagged1 antibody A
binding result (Murine Jag1-DSL-EGF1-4 [1]): binds
binding result (Human Jag2-DSL-EGF1-4 [2]): no binding
binding result (Murine Jag2-DSL-EGF1-4 [3]): no binding (tested: 0.5 µM)
Kd (Human Jag1-DSL-EGF1-4 [4]): 94 nM
koff (Human Jag1-DSL-EGF1-4 [4]): 0.0021 s⁻¹
kon (Human Jag1-DSL-EGF1-4 [4]): 23000 M⁻¹ s⁻¹

B3: Antibody A-1 S101A (antibody, V domains shown)
VH: B1 VH with S101A, W102L
VL: B1 VL with S91Y, P95A, P96T
notes: Mutant of A-1 expressed in mammalian cells; also called A-1 G100, S101A
Kd [5]: 4.62 nM
koff [5]: 0.000675 s⁻¹
kon [5]: 146000 M⁻¹ s⁻¹

B4: Antibody B (antibody, V domains shown)
VH: EVQLVESGGGLVQPGGSLRLSCAASGFTFTSYDIHWVRQAPGKGLEWVGGISPADGDTDYANSVKGRFTISADTSKNTAYLQMNSLRAEDTAVYYCARNDYDVRSVGSGMDYWGQGTLVTVSS
VL: B1 VL
notes: Anti-Jagged2 antibody, human IgG1; also called parental antibody of antibody B-3
binding result (Human Jag1-DSL-EGF1-4 [6]): no binding
binding result (Murine Jag1-DSL-EGF1-4 [7]): no binding
Kd (Human Jag2-DSL-EGF1-4 [8]): 1 nM
koff (Human Jag2-DSL-EGF1-4 [8]): 0.0026 s⁻¹
kon (Human Jag2-DSL-EGF1-4 [8]): 2.5e+06 M⁻¹ s⁻¹
Kd (Murine Jag2-DSL-EGF1-4 [9]): 1 nM
koff (Murine Jag2-DSL-EGF1-4 [9]): 0.0026 s⁻¹
kon (Murine Jag2-DSL-EGF1-4 [9]): 2.5e+06 M⁻¹ s⁻¹

B6: Antibody A-2 (antibody, human IgG1, V domains shown)
VH: B1 VH with P53G, D54N, T58S
VL: B1 VL
notes: also called anti-Jagged1 antibody A-2
Kd (Human Jag1-DSL-EGF1-4 [16]): 0.382 nM
koff (Human Jag1-DSL-EGF1-4 [16]): 9.23e-05 s⁻¹
kon (Human Jag1-DSL-EGF1-4 [16]): 242000 M⁻¹ s⁻¹
Kd (Murine Jag1-DSL-EGF1-4 [17]): 0.15 nM
koff (Murine Jag1-DSL-EGF1-4 [17]): 5.77e-05 s⁻¹
kon (Murine Jag1-DSL-EGF1-4 [17]): 385000 M⁻¹ s⁻¹
Kd (Human Jag1-DSL-EGF1-4 [4]): 0.3 nM
koff (Human Jag1-DSL-EGF1-4 [4]): 7.1e-05 s⁻¹
kon (Human Jag1-DSL-EGF1-4 [4]): 230000 M⁻¹ s⁻¹
binding result (Human Jag2-DSL-EGF1-4 [18]): no binding
binding result (Murine Jag2-DSL-EGF1-4 [19]): no binding
binding result [20]: no binding
binding result [21]: no binding
binding result [22]: no binding
binding result [23]: no binding

Next, values leading:

Kd [5]: 0.799 nM
B2: Antibody A-1 (antibody, human IgG1, kappa, V domains shown)
VH: B1 VH with W102L
VL: DIQMTQSPSSLSASVGDRVTITCRASQDVSTAVAWYQQKPGKAPKLLIYSASFLYSGVPSRFSGSGSGTDFTLTISSLQPEDFATYYCQQYYTTATTFGQGTKVEIKR

binding result [10]: no binding
binding result [11]: no binding
Kd (Human Jag2-DSL-EGF1-4 [12]): 0.041 nM
koff (Human Jag2-DSL-EGF1-4 [12]): 0.000188 s⁻¹
kon (Human Jag2-DSL-EGF1-4 [12]): 4.58e+06 M⁻¹ s⁻¹
Kd (Murine Jag2-DSL-EGF1-4 [13]): 0.0571 nM
koff (Murine Jag2-DSL-EGF1-4 [13]): 4.4e-05 s⁻¹
kon (Murine Jag2-DSL-EGF1-4 [13]): 771000 M⁻¹ s⁻¹
Kd (Murine Jag2-DSL-EGF1-4 [9]): 0.3 nM
koff (Murine Jag2-DSL-EGF1-4 [9]): 0.000175 s⁻¹
kon (Murine Jag2-DSL-EGF1-4 [9]): 580000 M⁻¹ s⁻¹
Kd [14]: 349 nM
Kd [15]: 72.3 nM
B5: Antibody B-3 (antibody, human IgG1, V domains shown)
VH: B4 VH with S105F
VL: B1 VL with Y92F, T94A
notes: also called anti-Jagged2 antibody B-3; anti-Jag2 B-3
